According to the supplement of paper PMC9112550, “Optimization of the antimicrobial peptide Bac7 by deep mutational scanning” (BMC Biology, 2022):

Test system: Escherichia coli TOP10
Assay: shrunken log2 fold change of peptide-encoding DNA abundance (4.5 h post-induction vs induction); higher = less antimicrobial activity (less host growth inhibition)
Details: time post-induction: 4.5 h; library: site-saturation at positions 5, 18, 19, 20
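Further: peptides expressed intracellularly from a pBAD plasmid library in pooled LB shake-flask culture, induced with 0.3% L-arabinose, DNA abundance read by NGS, three biological replicates, DESeq2 with apeglm shrinkage.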

| Sequence | shrunken log2 fold change |
| --- | --- |
| RRIRIRPPRLPRPRPRPMLWPRP | 0.0197 |
| RRIRQRPPRLPRPRPRPANNPRP | -0.27 |
| RRIRWRPPRLPRPRPRPMIQPRP | -0.000914 |
| RRIRSRPPRLPRPRPRPKDQPRP | 0.232 |
| RRIRARPPRLPRPRPRPILYPRP | -0.348 |
| RRIRTRPPRLPRPRPRPFLTPRP | 0.153 |
| RRIRFRPPRLPRPRPRPQGMPRP | -0.0535 |
| RRIRDRPPRLPRPRPRPSCWPRP | 0.585 |
| RRIRSRPPRLPRPRPRPILYPRP | -0.481 |
| RRIRWRPPRLPRPRPRPFTKPRP | -0.151 |
| RRIRYRPPRLPRPRPRPDHQPRP | -0.167 |
| RRIRPRPPRLPRPRPRPPYAPRP | 0.193 |
| RRIRDRPPRLPRPRPRPRPHPRP | 0.465 |
| RRIRDRPPRLPRPRPRPDRCPRP | -0.149 |
| RRIRNRPPRLPRPRPRPRVPPRP | -0.134 |
| RRIRHRPPRLPRPRPRPVAYPRP | -0.332 |
| RRIRSRPPRLPRPRPRPIAFPRP | -0.388 |
| RRIRKRPPRLPRPRPRPTTTPRP | 0.494 |
| RRIRHRPPRLPRPRPRPWCDPRP | -0.559 |
| RRIRMRPPRLPRPRPRPRAKPRP | 1.25 |
| RRIRFRPPRLPRPRPRPVEFPRP | -0.591 |
| RRIRDRPPRLPRPRPRPKHFPRP | -0.15 |
| RRIRTRPPRLPRPRPRPLSSPRP | -0.0339 |
| RRIRCRPPRLPRPRPRPMKKPRP | 0.0602 |
| RRIRARPPRLPRPRPRPGSSPRP | -0.112 |

| Sequence | shrunken log2 fold change |
| --- | --- |
| RRIRARPPRLPRPRPRPTTTPRP | 0.264 |
| RRIRWRPPRLPRPRPRPPSVPRP | 0.171 |
| RRIRWRPPRLPRPRPRPGEPPRP | 0.271 |
| RRIRLRPPRLPRPRPRPMMSPRP | -0.00436 |
| RRIRCRPPRLPRPRPRPQGRPRP | 0.445 |
| RRIRARPPRLPRPRPRPVEQPRP | 0.446 |
| RRIRNRPPRLPRPRPRPPQRPRP | 0.457 |
| RRIRMRPPRLPRPRPRPYVHPRP | -0.0522 |
| RRIRIRPPRLPRPRPRPYHRPRP | -0.00133 |
| RRIRNRPPRLPRPRPRPVFYPRP | -0.19 |
| RRIRFRPPRLPRPRPRPTLEPRP | 0.197 |
| RRIRGRPPRLPRPRPRPTGRPRP | 0.907 |
| RRIRVRPPRLPRPRPRPVMHPRP | -0.0179 |
| RRIRMRPPRLPRPRPRPQNPPRP | 0.26 |
| RRIRSRPPRLPRPRPRPNPPPRP | -0.222 |
| RRIRIRPPRLPRPRPRPMQIPRP | -0.099 |
| RRIRHRPPRLPRPRPRPAIHPRP | -0.303 |
| RRIRIRPPRLPRPRPRPYKVPRP | -0.385 |
| RRIRQRPPRLPRPRPRPGRDPRP | 3.85 |
| RRIRYRPPRLPRPRPRPKNRPRP | -0.0456 |
| RRIRMRPPRLPRPRPRPDHAPRP | 0.0825 |
| RRIRLRPPRLPRPRPRPPLKPRP | 0.253 |
| RRIRHRPPRLPRPRPRPIDNPRP | -0.359 |
| RRIRWRPPRLPRPRPRPIDAPRP | 0.0128 |
| RRIRQRPPRLPRPRPRPRVNPRP | -0.0952 |

| Sequence | shrunken log2 fold change |
| --- | --- |
| RRIRNRPPRLPRPRPRPIITPRP | -0.14 |
| RRIRVRPPRLPRPRPRPQSCPRP | -0.342 |
| RRIRCRPPRLPRPRPRPLGCPRP | 0.347 |
| RRIRIRPPRLPRPRPRPEGSPRP | 0.0664 |
| RRIRWRPPRLPRPRPRPFTHPRP | -0.297 |
| RRIRFRPPRLPRPRPRPCNQPRP | -0.649 |
| RRIRRRPPRLPRPRPRPQNTPRP | -0.218 |
| RRIRHRPPRLPRPRPRPEAFPRP | -0.0165 |
| RRIRFRPPRLPRPRPRPLDTPRP | 0.0445 |
| RRIRARPPRLPRPRPRPSEKPRP | -0.312 |
| RRIRMRPPRLPRPRPRPMCYPRP | 0.0406 |
| RRIRMRPPRLPRPRPRPCILPRP | 0.053 |
| RRIRVRPPRLPRPRPRPLVCPRP | -0.253 |
| RRIRIRPPRLPRPRPRPYHNPRP | -1.25 |
| RRIRNRPPRLPRPRPRPSRMPRP | -0.454 |
| RRIRHRPPRLPRPRPRPPCFPRP | -0.0882 |
| RRIRNRPPRLPRPRPRPWKVPRP | -1.21 |
| RRIRQRPPRLPRPRPRPAKGPRP | 0.01 |
| RRIRPRPPRLPRPRPRPCAYPRP | -0.311 |
| RRIRIRPPRLPRPRPRPLGMPRP | -0.268 |
| RRIRVRPPRLPRPRPRPNMKPRP | -0.524 |
| RRIRFRPPRLPRPRPRPQFTPRP | -0.362 |
| RRIRKRPPRLPRPRPRPLERPRP | 0.529 |
| RRIRPRPPRLPRPRPRPKFLPRP | 0.0917 |
| RRIRNRPPRLPRPRPRPCDQPRP | -0.0229 |

| Sequence | shrunken log2 fold change |
| --- | --- |
| RRIRARPPRLPRPRPRPHNIPRP | -0.124 |
| RRIRWRPPRLPRPRPRPVHEPRP | 0.21 |
| RRIRVRPPRLPRPRPRPIKSPRP | -0.184 |
| RRIRARPPRLPRPRPRPEIVPRP | 0.553 |
| RRIRKRPPRLPRPRPRPNLEPRP | 0.185 |
| RRIRRRPPRLPRPRPRPMKIPRP | 0.186 |
| RRIRPRPPRLPRPRPRPHREPRP | -0.176 |
| RRIRTRPPRLPRPRPRPHLWPRP | 0.0316 |
| RRIRLRPPRLPRPRPRPVWLPRP | 0.242 |
| RRIRTRPPRLPRPRPRPLCCPRP | 1 |
| RRIRNRPPRLPRPRPRPKMPPRP | 0.341 |
| RRIRSRPPRLPRPRPRPVKMPRP | 0.0674 |
| RRIRLRPPRLPRPRPRPHCIPRP | -0.0543 |
| RRIRWRPPRLPRPRPRPFHRPRP | -0.2 |
| RRIRDRPPRLPRPRPRPNTCPRP | -0.0241 |
| RRIRTRPPRLPRPRPRPQFFPRP | -0.11 |
| RRIRCRPPRLPRPRPRPVAGPRP | 0.0113 |
| RRIRFRPPRLPRPRPRPFPTPRP | -0.0582 |
| RRIRQRPPRLPRPRPRPPFHPRP | 0.102 |
| RRIRKRPPRLPRPRPRPHGGPRP | -0.0161 |
| RRIRRRPPRLPRPRPRPWISPRP | -0.382 |
| RRIRIRPPRLPRPRPRPHLYPRP | -0.241 |
| RRIRARPPRLPRPRPRPSKRPRP | 0.0155 |
| RRIRCRPPRLPRPRPRPFQQPRP | -0.00107 |
| RRIRERPPRLPRPRPRPDIWPRP | -0.0258 |

| Sequence | shrunken log2 fold change |
| --- | --- |
| RRIRARPPRLPRPRPRPNVGPRP | 0.251 |
| RRIRARPPRLPRPRPRPLSHPRP | 0.186 |
| RRIRCRPPRLPRPRPRPHVNPRP | -0.497 |
| RRIRPRPPRLPRPRPRPFGRPRP | -0.314 |
| RRIRERPPRLPRPRPRPDYCPRP | -0.00145 |
| RRIRCRPPRLPRPRPRPLWKPRP | 0.101 |
| RRIRSRPPRLPRPRPRPFARPRP | -0.172 |
| RRIRCRPPRLPRPRPRPGRWPRP | 0.434 |
| RRIRYRPPRLPRPRPRPTYQPRP | -0.00459 |
| RRIRLRPPRLPRPRPRPATKPRP | 0.0731 |
| RRIRLRPPRLPRPRPRPHELPRP | 0.245 |
| RRIRRRPPRLPRPRPRPQDDPRP | -0.0295 |
| RRIRFRPPRLPRPRPRPNGHPRP | -0.0454 |
| RRIRMRPPRLPRPRPRPGHCPRP | -0.0518 |
| RRIRGRPPRLPRPRPRPAVGPRP | 1.77 |
| RRIRWRPPRLPRPRPRPDKVPRP | 0.0749 |
| RRIRLRPPRLPRPRPRPLFWPRP | 0.12 |
| RRIRPRPPRLPRPRPRPHCHPRP | -0.0394 |
| RRIRKRPPRLPRPRPRPDMWPRP | 0.245 |
| RRIRRRPPRLPRPRPRPIEWPRP | 0.375 |
| RRIRGRPPRLPRPRPRPKHRPRP | 0.449 |
| RRIRLRPPRLPRPRPRPFAHPRP | -0.367 |
| RRIRLRPPRLPRPRPRPIYKPRP | -0.489 |
| RRIRIRPPRLPRPRPRPMWNPRP | -0.472 |
| RRIRKRPPRLPRPRPRPGEQPRP | -0.0435 |

| Sequence | shrunken log2 fold change |
| --- | --- |
| RRIRDRPPRLPRPRPRPAGPPRP | 0.271 |
| RRIRNRPPRLPRPRPRPDAWPRP | 0.0835 |
| RRIRRRPPRLPRPRPRPKDFPRP | -0.123 |
| RRIRCRPPRLPRPRPRPEVKPRP | 0.149 |
| RRIRNRPPRLPRPRPRPLFIPRP | -1.03 |
| RRIRGRPPRLPRPRPRPITCPRP | -0.00623 |
| RRIRQRPPRLPRPRPRPESEPRP | 0.219 |
| RRIRVRPPRLPRPRPRPWDYPRP | -0.0898 |
| RRIRKRPPRLPRPRPRPERAPRP | 0.892 |
| RRIRTRPPRLPRPRPRPEMWPRP | 0.0446 |
| RRIRKRPPRLPRPRPRPVSMPRP | 0.224 |
| RRIRNRPPRLPRPRPRPIWLPRP | 0.0648 |
| RRIRTRPPRLPRPRPRPNDEPRP | -0.0966 |
| RRIRARPPRLPRPRPRPHIDPRP | 0.205 |
| RRIRIRPPRLPRPRPRPPQVPRP | 0.328 |
| RRIRHRPPRLPRPRPRPNEHPRP | 0.409 |
| RRIRGRPPRLPRPRPRPLMFPRP | 0.603 |
| RRIRQRPPRLPRPRPRPDAKPRP | 0.199 |
| RRIRLRPPRLPRPRPRPLYYPRP | -0.274 |
| RRIRPRPPRLPRPRPRPCQYPRP | 0.0594 |
| RRIRIRPPRLPRPRPRPGGWPRP | 0.56 |
| RRIRVRPPRLPRPRPRPPLYPRP | -0.00849 |
| RRIRGRPPRLPRPRPRPVQVPRP | 0.215 |
| RRIRMRPPRLPRPRPRPAKKPRP | 0.209 |
| RRIRWRPPRLPRPRPRPCRIPRP | -0.113 |
